Columns and labels:
Saccharomyces cerevisiae [1] = experiment: protein stability index of tFT-peptide fusion in wild type (PSI (0-1 scale)); higher = more stable (slower turnover); conditions: genetic background: wild type
Experimental: (§1)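 MPS profiling in S. cerevisiae of two library types built from selected 12-aa C-degron peptides (IN1, IN2, LN1, LN3, VN2, R1-R5, W1-W3, Atg1 and Rpa12 C-termini): saturation mutagenesis libraries and C-terminal +1 capping libraries (13 aa). Each peptide is fused to the C-terminus of a sfGFP-mCherry timer, after a GGGS linker. Cells are FACS-sorted into 8 mCherry/sfGFP bins and sequenced. PSI runs from 0 (unstable) to 1 (stable), measured once in wild type and in the das1Δ or doa10Δ background.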

Saccharomyces cerevisiae [2] = experiment: protein stability index of tFT-peptide fusion in deletion strain of DAS1 (PSI (0-1 scale)); higher = more stable (slower turnover)
Experimental: as §1
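Throughout, for protein stability index of tFT-peptide fusion in deletion strain of DAS1: PSI is a weighted mean of each variant's read distribution over the sorted stability bins, computed only for variants having over 10 reads in total.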
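Throughout, for protein stability index of tFT-peptide fusion in wild type: PSI derived as read-weighted mean over the 8 sorting bins, only variants exceeding 10 total reads kept, mCherry placed adjacent to the peptide and sfGFP distal.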

Sequence: PDKRNHGIKLLN
- protein stability index (Saccharomyces cerevisiae [1]): 0.41
- protein stability index (Saccharomyces cerevisiae [2]): 0.587

Sequence: VRLAVGGWRLVG
- protein stability index (Saccharomyces cerevisiae [1]): 0.131
- protein stability index (Saccharomyces cerevisiae [2]): 0.679

Sequence: LKILRQKMNHQQ
- protein stability index (Saccharomyces cerevisiae [1]): 0.193
- protein stability index (Saccharomyces cerevisiae [2]): 0.691

Sequence: VRGAVHGWRLVG
- protein stability index (Saccharomyces cerevisiae [1]): 0.155
- protein stability index (Saccharomyces cerevisiae [2]): 0.679

Sequence: PDKRNHLIKLLD
- protein stability index (Saccharomyces cerevisiae [1]): 0.666
- protein stability index (Saccharomyces cerevisiae [2]): 0.611

Sequence: ARWRVGLVRGAS
- protein stability index (Saccharomyces cerevisiae [1]): 0.614
- protein stability index (Saccharomyces cerevisiae [2]): 0.663

Sequence: ARWRVQLWRGAS
- protein stability index (Saccharomyces cerevisiae [1]): 0.287
- protein stability index (Saccharomyces cerevisiae [2]): 0.689

Sequence: CTSCGYKDRTNN
- protein stability index (Saccharomyces cerevisiae [1]): 0.634
- protein stability index (Saccharomyces cerevisiae [2]): 0.702

Sequence: PFKRNHLIKLLN
- protein stability index (Saccharomyces cerevisiae [1]): 0.0943
- protein stability index (Saccharomyces cerevisiae [2]): 0.587

Sequence: CRWRVGLWRGAS
- protein stability index (Saccharomyces cerevisiae [1]): 0.276
- protein stability index (Saccharomyces cerevisiae [2]): 0.697

Sequence: PSLAASFNRVVG
- protein stability index (Saccharomyces cerevisiae [1]): 0.643
- protein stability index (Saccharomyces cerevisiae [2]): 0.673

Sequence: NKILRQKMNHQN
- protein stability index (Saccharomyces cerevisiae [1]): 0.113
- protein stability index (Saccharomyces cerevisiae [2]): 0.701

Sequence: FSMRWTFRYWVNI
- protein stability index (Saccharomyces cerevisiae [1]): 0.134
- protein stability index (Saccharomyces cerevisiae [2]): 0.527

Sequence: PDKRNHLHKLLN
- protein stability index (Saccharomyces cerevisiae [1]): 0.265
- protein stability index (Saccharomyces cerevisiae [2]): 0.59

Sequence: LVVYLACVACIN
- protein stability index (Saccharomyces cerevisiae [1]): 0.0186
- protein stability index (Saccharomyces cerevisiae [2]): 0.041

Sequence: RDKRNHLIKLLN
- protein stability index (Saccharomyces cerevisiae [1]): 0.1
- protein stability index (Saccharomyces cerevisiae [2]): 0.612

Sequence: LVVYLSCVACEN
- protein stability index (Saccharomyces cerevisiae [1]): 0.132
- protein stability index (Saccharomyces cerevisiae [2]): 0.132

Sequence: RLITPLPVQFLN
- protein stability index (Saccharomyces cerevisiae [1]): 0.0429
- protein stability index (Saccharomyces cerevisiae [2]): 0.605

Sequence: LVVYLSCQACIN
- protein stability index (Saccharomyces cerevisiae [1]): 0.00888
- protein stability index (Saccharomyces cerevisiae [2]): 0.0148

Sequence: LKILRQKMNKQN
- protein stability index (Saccharomyces cerevisiae [1]): 0.246
- protein stability index (Saccharomyces cerevisiae [2]): 0.656

Sequence: VRGAVGGWRLVD
- protein stability index (Saccharomyces cerevisiae [1]): 0.615
- protein stability index (Saccharomyces cerevisiae [2]): 0.684

Sequence: FWMRWTFRYWVN
- protein stability index (Saccharomyces cerevisiae [1]): 0.0402
- protein stability index (Saccharomyces cerevisiae [2]): 0.379

Sequence: ARWRVGAWRGAS
- protein stability index (Saccharomyces cerevisiae [1]): 0.427
- protein stability index (Saccharomyces cerevisiae [2]): 0.688

Sequence: LKICRQKMNHQN
- protein stability index (Saccharomyces cerevisiae [1]): 0.254
- protein stability index (Saccharomyces cerevisiae [2]): 0.722

Sequence: PSLAASFWSVVG
- protein stability index (Saccharomyces cerevisiae [1]): 0.694
- protein stability index (Saccharomyces cerevisiae [2]): 0.709

Sequence: CTSCGPKFRTNN
- protein stability index (Saccharomyces cerevisiae [1]): 0.598
- protein stability index (Saccharomyces cerevisiae [2]): 0.674

Sequence: PDKRQHLIKLLN
- protein stability index (Saccharomyces cerevisiae [1]): 0.065
- protein stability index (Saccharomyces cerevisiae [2]): 0.562

Sequence: VRGAVGGWYLVG
- protein stability index (Saccharomyces cerevisiae [1]): 0.603
- protein stability index (Saccharomyces cerevisiae [2]): 0.691

Sequence: LNVYLSCVACIN
- protein stability index (Saccharomyces cerevisiae [1]): 0.043
- protein stability index (Saccharomyces cerevisiae [2]): 0.188

Sequence: LKILRQKMKHQN
- protein stability index (Saccharomyces cerevisiae [1]): 0.568
- protein stability index (Saccharomyces cerevisiae [2]): 0.687

Sequence: PSLAFSFWRVVG
- protein stability index (Saccharomyces cerevisiae [1]): 0.111
- protein stability index (Saccharomyces cerevisiae [2]): 0.676

Sequence: PDKRNCLIKLLN
- protein stability index (Saccharomyces cerevisiae [1]): 0.148
- protein stability index (Saccharomyces cerevisiae [2]): 0.586

Sequence: ERGAVGGWRLVG
- protein stability index (Saccharomyces cerevisiae [1]): 0.168
- protein stability index (Saccharomyces cerevisiae [2]): 0.675

Sequence: PSLAASFWRWVG
- protein stability index (Saccharomyces cerevisiae [1]): 0.145
- protein stability index (Saccharomyces cerevisiae [2]): 0.706

Sequence: LKHKKGQKQKIN
- protein stability index (Saccharomyces cerevisiae [1]): 0.094
- protein stability index (Saccharomyces cerevisiae [2]): 0.576

Sequence: PDKRGHLIKLLN
- protein stability index (Saccharomyces cerevisiae [1]): 0.113
- protein stability index (Saccharomyces cerevisiae [2]): 0.593

Sequence: CTSCGYKFRPNN
- protein stability index (Saccharomyces cerevisiae [1]): 0.727
- protein stability index (Saccharomyces cerevisiae [2]): 0.714

Sequence: FSMRWTFRYWVG
- protein stability index (Saccharomyces cerevisiae [1]): 0.422
- protein stability index (Saccharomyces cerevisiae [2]): 0.476

Sequence: LKILRQKMNVQN
- protein stability index (Saccharomyces cerevisiae [1]): 0.226
- protein stability index (Saccharomyces cerevisiae [2]): 0.661

Sequence: PSLAASFWRVVI
- protein stability index (Saccharomyces cerevisiae [1]): 0.263
- protein stability index (Saccharomyces cerevisiae [2]): 0.716

Sequence: RLIQPLPVQFLM
- protein stability index (Saccharomyces cerevisiae [1]): 0.13
- protein stability index (Saccharomyces cerevisiae [2]): 0.595

Sequence: CTSWGYKFRTNN
- protein stability index (Saccharomyces cerevisiae [1]): 0.137
- protein stability index (Saccharomyces cerevisiae [2]): 0.744

Sequence: LKALRQKMNHQN
- protein stability index (Saccharomyces cerevisiae [1]): 0.213
- protein stability index (Saccharomyces cerevisiae [2]): 0.672

Sequence: PDKRWHLIKLLN
- protein stability index (Saccharomyces cerevisiae [1]): 0.0628
- protein stability index (Saccharomyces cerevisiae [2]): 0.633

Sequence: VRGAVGGWRLVGR
- protein stability index (Saccharomyces cerevisiae [1]): 0.676
- protein stability index (Saccharomyces cerevisiae [2]): 0.674

Sequence: CTSCGYKFRTNL
- protein stability index (Saccharomyces cerevisiae [1]): 0.652
- protein stability index (Saccharomyces cerevisiae [2]): 0.703

Sequence: CTSCGYKFRTNNT
- protein stability index (Saccharomyces cerevisiae [1]): 0.692
- protein stability index (Saccharomyces cerevisiae [2]): 0.689

Sequence: ARWRVGLWQGAS
- protein stability index (Saccharomyces cerevisiae [1]): 0.602
- protein stability index (Saccharomyces cerevisiae [2]): 0.578

Sequence: PDWRNHLIKLLN
- protein stability index (Saccharomyces cerevisiae [1]): 0.144
- protein stability index (Saccharomyces cerevisiae [2]): 0.627

Sequence: KKHKKGQYQKIN
- protein stability index (Saccharomyces cerevisiae [1]): 0.0851
- protein stability index (Saccharomyces cerevisiae [2]): 0.569

Sequence: ARWRVGSWRGAS
- protein stability index (Saccharomyces cerevisiae [1]): 0.641
- protein stability index (Saccharomyces cerevisiae [2]): 0.692

Sequence: CTSCGYKFRTNNC
- protein stability index (Saccharomyces cerevisiae [1]): 0.708
- protein stability index (Saccharomyces cerevisiae [2]): 0.673

Sequence: LVVYLSCVACINL
- protein stability index (Saccharomyces cerevisiae [1]): 0.0224
- protein stability index (Saccharomyces cerevisiae [2]): 0.0337

Sequence: LKILRQKMNHQNK
- protein stability index (Saccharomyces cerevisiae [1]): 0.656
- protein stability index (Saccharomyces cerevisiae [2]): 0.664

Sequence: HVVYLSCVACIN
- protein stability index (Saccharomyces cerevisiae [1]): 0.0139
- protein stability index (Saccharomyces cerevisiae [2]): 0.0397

Sequence: CTLCGYKFRTNN
- protein stability index (Saccharomyces cerevisiae [1]): 0.278
- protein stability index (Saccharomyces cerevisiae [2]): 0.72

Sequence: VTGAVGGWRLVG
- protein stability index (Saccharomyces cerevisiae [1]): 0.141
- protein stability index (Saccharomyces cerevisiae [2]): 0.672

Sequence: VRGAVGGWRRVG
- protein stability index (Saccharomyces cerevisiae [1]): 0.163
- protein stability index (Saccharomyces cerevisiae [2]): 0.67

Sequence: KKHKKAQKQKIN
- protein stability index (Saccharomyces cerevisiae [1]): 0.06
- protein stability index (Saccharomyces cerevisiae [2]): 0.601

Sequence: FSSRWTFRYWVN
- protein stability index (Saccharomyces cerevisiae [1]): 0.1
- protein stability index (Saccharomyces cerevisiae [2]): 0.604

Sequence: ARWRVGLWRKAS
- protein stability index (Saccharomyces cerevisiae [1]): 0.1
- protein stability index (Saccharomyces cerevisiae [2]): 0.672

Sequence: LKILRQCMNHQN
- protein stability index (Saccharomyces cerevisiae [1]): 0.288
- protein stability index (Saccharomyces cerevisiae [2]): 0.686

Sequence: RLIQPLPVIFLN
- protein stability index (Saccharomyces cerevisiae [1]): 0.138
- protein stability index (Saccharomyces cerevisiae [2]): 0.548

Sequence: AHWRVGLWRGAS
- protein stability index (Saccharomyces cerevisiae [1]): 0.43
- protein stability index (Saccharomyces cerevisiae [2]): 0.688

Sequence: VRGAVGGRRLVG
- protein stability index (Saccharomyces cerevisiae [1]): 0.641
- protein stability index (Saccharomyces cerevisiae [2]): 0.675

Sequence: LTVYLSCVACIN
- protein stability index (Saccharomyces cerevisiae [1]): 0.0165
- protein stability index (Saccharomyces cerevisiae [2]): 0.0375

Sequence: PSLAASFWRVVH
- protein stability index (Saccharomyces cerevisiae [1]): 0.448
- protein stability index (Saccharomyces cerevisiae [2]): 0.695

Sequence: VRGAVGQWRLVG
- protein stability index (Saccharomyces cerevisiae [1]): 0.147
- protein stability index (Saccharomyces cerevisiae [2]): 0.663

Sequence: KKHKKGQKQKINP
- protein stability index (Saccharomyces cerevisiae [1]): 0.658
- protein stability index (Saccharomyces cerevisiae [2]): 0.663

Sequence: VRGAVGGWRLVA
- protein stability index (Saccharomyces cerevisiae [1]): 0.151
- protein stability index (Saccharomyces cerevisiae [2]): 0.677

Sequence: FSMRWTFYYWVN
- protein stability index (Saccharomyces cerevisiae [1]): 0.0564
- protein stability index (Saccharomyces cerevisiae [2]): 0.418

Sequence: VRGAVGGIRLVG
- protein stability index (Saccharomyces cerevisiae [1]): 0.589
- protein stability index (Saccharomyces cerevisiae [2]): 0.682

Sequence: RLIQPLPEQFLN
- protein stability index (Saccharomyces cerevisiae [1]): 0.29
- protein stability index (Saccharomyces cerevisiae [2]): 0.592

Sequence: FSMRWTFRYWSN
- protein stability index (Saccharomyces cerevisiae [1]): 0.313
- protein stability index (Saccharomyces cerevisiae [2]): 0.538

Sequence: PSLAASFWRVHG
- protein stability index (Saccharomyces cerevisiae [1]): 0.193
- protein stability index (Saccharomyces cerevisiae [2]): 0.686

Sequence: CTWCGYKFRTNN
- protein stability index (Saccharomyces cerevisiae [1]): 0.224
- protein stability index (Saccharomyces cerevisiae [2]): 0.685

Sequence: KKHKKGQKKKIN
- protein stability index (Saccharomyces cerevisiae [1]): 0.523
- protein stability index (Saccharomyces cerevisiae [2]): 0.576

Sequence: VRGAVGGWRLVH
- protein stability index (Saccharomyces cerevisiae [1]): 0.233
- protein stability index (Saccharomyces cerevisiae [2]): 0.666

Sequence: KKHKKGQKQIIN
- protein stability index (Saccharomyces cerevisiae [1]): 0.642
- protein stability index (Saccharomyces cerevisiae [2]): 0.584

Sequence: LKILRQSMNHQN
- protein stability index (Saccharomyces cerevisiae [1]): 0.238
- protein stability index (Saccharomyces cerevisiae [2]): 0.661

Sequence: RLIQPLPVDFLN
- protein stability index (Saccharomyces cerevisiae [1]): 0.716
- protein stability index (Saccharomyces cerevisiae [2]): 0.624

Sequence: ARWRDGLWRGAS
- protein stability index (Saccharomyces cerevisiae [1]): 0.651
- protein stability index (Saccharomyces cerevisiae [2]): 0.692

Sequence: PDKRNHLIKLLE
- protein stability index (Saccharomyces cerevisiae [1]): 0.579
- protein stability index (Saccharomyces cerevisiae [2]): 0.606

Sequence: ARWRVGLWKGAS
- protein stability index (Saccharomyces cerevisiae [1]): 0.64
- protein stability index (Saccharomyces cerevisiae [2]): 0.671

Sequence: RLIQPLPVPFLN
- protein stability index (Saccharomyces cerevisiae [1]): 0.313
- protein stability index (Saccharomyces cerevisiae [2]): 0.607

Sequence: PSLAASFWRQVG
- protein stability index (Saccharomyces cerevisiae [1]): 0.146
- protein stability index (Saccharomyces cerevisiae [2]): 0.653

Sequence: ARWRVGLWRGASG
- protein stability index (Saccharomyces cerevisiae [1]): 0.662
- protein stability index (Saccharomyces cerevisiae [2]): 0.674

Sequence: PDKRNHLIKLLNN
- protein stability index (Saccharomyces cerevisiae [1]): 0.137
- protein stability index (Saccharomyces cerevisiae [2]): 0.666

Sequence: KKHKKGQKMKIN
- protein stability index (Saccharomyces cerevisiae [1]): 0.105
- protein stability index (Saccharomyces cerevisiae [2]): 0.583

From the supplement of paper PMC10724198
